Data from the supplement of paper PMC10567573.

B1: ZNF449 (parent)
chain: EPHKCPECGKRFLRSSDLYRHQRL

Variants of: B1
Test: protein stability index of a GFP-peptide fusion (GPS, HEK-293T) (PSI 1-6); higher = more stable
Details: c terminus: a fixed tail appended
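Also: lentivirally expressed fusions sorted by FACS into six bins by GFP to DsRed ratio, PSI derived from sequencing read proportions per bin multiplied by bin number.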

Variant	protein stability index
EPHKCPECGKRFLRSSDLYRMQRL [H21M]	2
EPHKCPECGKRFLRSSDLYRRQRL [H21R]	2.07
EPHKCPECGKRFLRSSDLYRQQRL [H21Q]	1.91
EPHKCPECGKRFLRSSDLYRGQRL [H21G]	1.84
EPHKCPECGKRFLRSSDLYRPQRL [H21P]	2.14
EPHKCPECGKRFLRSSDLYRIQRL [H21I]	1.64
EPHKCPECGKRFLRSSDLYRYQRL [H21Y]	2.1
EPHKCPECGKRFLRSSDLYRFQRL [H21F]	2.25
EPHKCPECGKRFLRSSDLYRTQRL [H21T]	2.34
EPHKCPECGKRFLRSSDLYRSQRL [H21S]	2
EPHKCPECGKRFLRSSDLYRHQRS [L24S]	4.4
EPHKCPECGKRFLRSSDLYRHQRW [L24W]	3.01
EPHKCPECGKRFLRSSDLYRHQRH [L24H]	4.18
EPHKCPECGKRFLRSSDLYRHQRI [L24I]	3.63
EPHKCPECGKRFLRSSDLYRHQRQ [L24Q]	4.6
EPHKCPECGKRFLRSSDLYRHQRD [L24D]	4.98
EPHKCPECGKRFLRSSDLYRHQRV [L24V]	3.82
EPHKCPECGKRFLRSSDLYRHQRN [L24N]	4.29
EPHKCPECGKRFLRSSDLYRHQRK [L24K]	4
EPHKEPECGKRFLRSSDLYRHQRL [C5E]	3.56
EPHKSPECGKRFLRSSDLYRHQRL [C5S]	3.44
EPHKVPECGKRFLRSSDLYRHQRL [C5V]	2.87
EPHKYPECGKRFLRSSDLYRHQRL [C5Y]	3.14
EPHKWPECGKRFLRSSDLYRHQRL [C5W]	3.01

Variant	protein stability index
EPHKFPECGKRFLRSSDLYRHQRL [C5F]	2.5
EPHKQPECGKRFLRSSDLYRHQRL [C5Q]	3.6
EPHKGPECGKRFLRSSDLYRHQRL [C5G]	2.63
EPHKPPECGKRFLRSSDLYRHQRL [C5P]	3.07
EPHKCPECHKRFLRSSDLYRHQRL [G9H]	3.08
EPHKCPECLKRFLRSSDLYRHQRL [G9L]	2.3
EPHKCPECVKRFLRSSDLYRHQRL [G9V]	2.54
EPHKCPECWKRFLRSSDLYRHQRL [G9W]	2.12
EPHKCPECSKRFLRSSDLYRHQRL [G9S]	3.36
EPHKCPECNKRFLRSSDLYRHQRL [G9N]	3.14
EPHKCPECKKRFLRSSDLYRHQRL [G9K]	2.61
EPHKCPECAKRFLRSSDLYRHQRL [G9A]	2.24
EPHKCIECGKRFLRSSDLYRHQRL [P6I]	3.23
EPHKCCECGKRFLRSSDLYRHQRL [P6C]	3.75
EPHKCFECGKRFLRSSDLYRHQRL [P6F]	3.22
EPHKCSECGKRFLRSSDLYRHQRL [P6S]	3.69
EPHKCEECGKRFLRSSDLYRHQRL [P6E]	4.19
EPHKCMECGKRFLRSSDLYRHQRL [P6M]	3.88
EPHKCQECGKRFLRSSDLYRHQRL [P6Q]	3.68
EPHKCYECGKRFLRSSDLYRHQRL [P6Y]	3.53
EPHKCWECGKRFLRSSDLYRHQRL [P6W]	3.31
EPHACPECGKRFLRSSDLYRHQRL [K4A]	4.5
EPHWCPECGKRFLRSSDLYRHQRL [K4W]	3.65
EPHMCPECGKRFLRSSDLYRHQRL [K4M]	4.7

Variant	protein stability index
EPHNCPECGKRFLRSSDLYRHQRL [K4N]	4.09
EPHCCPECGKRFLRSSDLYRHQRL [K4C]	3.86
EPHPCPECGKRFLRSSDLYRHQRL [K4P]	3.42
EPHLCPECGKRFLRSSDLYRHQRL [K4L]	4.49
EPHKCPECGKRFLRSSDLYRHQEL [R23E]	4.47
EPHKCPECGKRFLRSSDLYRHQCL [R23C]	5.02
EPHKCPECGKRFLRSSDLYRHQKL [R23K]	4.27
EPHKCPECGKRFLRSSDLYRHQAL [R23A]	3.74
EPHKCPECGKRFLRSSDLYRHQGL [R23G]	3.54
EPHKCPECGKRFLRSSDLYRHQFL [R23F]	3.43
EPHKCPECGKRFLRSSDLYRHQML [R23M]	3.47
EPHKCPECGKRFLRSSDLYRHQQL [R23Q]	4.43
EPHKCPECGKRFLRSSDLYRHQSL [R23S]	4.11
EPHKCPECGKRFLRSPDLYRHQRL [S16P]	2.99
EPHKCPECGKRFLRSIDLYRHQRL [S16I]	3.26
EPHKCPECGKRFLRSEDLYRHQRL [S16E]	4.99
EPHKCPECGKRFLRSCDLYRHQRL [S16C]	3.62
EPHKCPECGKRFLRSMDLYRHQRL [S16M]	3.4
EPHKCPECGKRFLRSFDLYRHQRL [S16F]	2.09
EPHKCPECGKRFLRSKDLYRHQRL [S16K]	3.81
EPHKCPECGKRFLRSDDLYRHQRL [S16D]	4.06
EPHKCPECGIRFLRSSDLYRHQRL [K10I]	3.32
EPHKCPECGSRFLRSSDLYRHQRL [K10S]	3.21
EPHKCPECGNRFLRSSDLYRHQRL [K10N]	2.52

Variant	protein stability index
EPHKCPECGVRFLRSSDLYRHQRL [K10V]	3.31
EPHKCPECGDRFLRSSDLYRHQRL [K10D]	2.44
EPHKCPECGLRFLRSSDLYRHQRL [K10L]	3.65
EPHKCPECGWRFLRSSDLYRHQRL [K10W]	2.13
EPDKCPECGKRFLRSSDLYRHQRL [H3D]	3.23
EPRKCPECGKRFLRSSDLYRHQRL [H3R]	3.29
EPCKCPECGKRFLRSSDLYRHQRL [H3C]	3.58
EPGKCPECGKRFLRSSDLYRHQRL [H3G]	3.02
EPMKCPECGKRFLRSSDLYRHQRL [H3M]	3.79
EPWKCPECGKRFLRSSDLYRHQRL [H3W]	4
EPHKCPECGKRFLRSSDLYRHLRL [Q22L]	3.93
EPHKCPECGKRFLRSSDLYRHDRL [Q22D]	2.39
EPHKCPECGKRFLRSSDLYRHHRL [Q22H]	3.27
EPHKCPECGKRFLRSSDLYRHCRL [Q22C]	3.97
EPHKCPECGKRFLRSSDLYRHSRL [Q22S]	3.16
EPHKCPECGKRFLRSSDLYRHGRL [Q22G]	2.83
EPHKCPECGKRFLRSSDLYRHVRL [Q22V]	3.76
EPHKCPECGKRFLRSSDMYRHQRL [L18M]	3.46
EPHKCPECGKRFLRSSDKYRHQRL [L18K]	2.74
EPHKCPECGKRFLRSSDSYRHQRL [L18S]	3.15
EPHKCPECGKRFLRSSDDYRHQRL [L18D]	2.87
EPHKCPECGKRFLRSSDCYRHQRL [L18C]	3.68
EPHKCPECGKRFLRSSDTYRHQRL [L18T]	2.48
EPHKCPECGKRFERSSDLYRHQRL [L13E]	4.78

Variant	protein stability index
EPHKCPECGKRFNRSSDLYRHQRL [L13N]	4.08
EPHKCPECGKRFWRSSDLYRHQRL [L13W]	3.55
EPHKCPECGKRFCRSSDLYRHQRL [L13C]	4.05
EPHKCPECGKRFYRSSDLYRHQRL [L13Y]	4.09
EPHKCPECGKRFDRSSDLYRHQRL [L13D]	4.82
EPHKCPECGKRFHRSSDLYRHQRL [L13H]	3.85
EPHKCPECGKRFLRSSWLYRHQRL [D17W]	1.72
EPHKCPECGKRFLRSSYLYRHQRL [D17Y]	2.21
EPHKCPECGKRFLRSSKLYRHQRL [D17K]	2.33
EPHKCPECGKRFLRSSCLYRHQRL [D17C]	2.66
EPHKCPECGKRFLRSSTLYRHQRL [D17T]	2.36
EPHKCPECGKRFLRSSHLYRHQRL [D17H]	2.87
EPHKCPECGKRFLRSSQLYRHQRL [D17Q]	2.59
EPHKCPECGKRFLRSSALYRHQRL [D17A]	2.32
EPHKCPECGKRFLRSSELYRHQRL [D17E]	3.82
EPHKCPECGKRFLRSSLLYRHQRL [D17L]	2.81
EPHKCPECGKRFLLSSDLYRHQRL [R14L]	3.51
EPHKCPECGKRFLWSSDLYRHQRL [R14W]	2.75
EPHKCPECGKRFLSSSDLYRHQRL [R14S]	4.61
EPHKCPECGKRFLHSSDLYRHQRL [R14H]	3.97
EPHKCPECGKRFLDSSDLYRHQRL [R14D]	4.29
EHHKCPECGKRFLRSSDLYRHQRL [P2H]	3.95
ESHKCPECGKRFLRSSDLYRHQRL [P2S]	4.41
EMHKCPECGKRFLRSSDLYRHQRL [P2M]	3.38

Variant	protein stability index
EFHKCPECGKRFLRSSDLYRHQRL [P2F]	3.17
EDHKCPECGKRFLRSSDLYRHQRL [P2D]	4
ETHKCPECGKRFLRSSDLYRHQRL [P2T]	3.52
EPHKCPECGKRFLRSSDLIRHQRL [Y19I]	3.86
EPHKCPECGKRFLRSSDLQRHQRL [Y19Q]	3.84
EPHKCPECGKRFLRSSDLDRHQRL [Y19D]	4.68
EPHKCPECGKRFLRSSDLHRHQRL [Y19H]	3.99
EPHKCPECGKRFLRSSDLARHQRL [Y19A]	4.05
EPHKCPECGKRFLRSSDLVRHQRL [Y19V]	3.89
EPHKCPECGKRFLRSSDLGRHQRL [Y19G]	2.92
EPHKCPECGKRFLRSSDLSRHQRL [Y19S]	3.68
EPHKCPECGKRFLRCSDLYRHQRL [S15C]	3.42
EPHKCPECGKRFLRKSDLYRHQRL [S15K]	4.27
EPHKCPECGKRFLRYSDLYRHQRL [S15Y]	4.03
EPHKCPECGKRFLRMSDLYRHQRL [S15M]	3.98
EPHKCPECGKRFLRFSDLYRHQRL [S15F]	3.51
EPHKCPECGKRFLRASDLYRHQRL [S15A]	4.16
EPHKCPECGKRFLRGSDLYRHQRL [S15G]	3.53
EPHKCPECGKRFLRESDLYRHQRL [S15E]	4.54
EPHKCPECGKRFLRPSDLYRHQRL [S15P]	3.25
EPHKCPEIGKRFLRSSDLYRHQRL [C8I]	3.06
EPHKCPEAGKRFLRSSDLYRHQRL [C8A]	3.24
EPHKCPENGKRFLRSSDLYRHQRL [C8N]	3.16
EPHKCPELGKRFLRSSDLYRHQRL [C8L]	3.01

Variant	protein stability index
EPHKCPEKGKRFLRSSDLYRHQRL [C8K]	3.75
EPHKCPEEGKRFLRSSDLYRHQRL [C8E]	4.02
EPHKCPEYGKRFLRSSDLYRHQRL [C8Y]	3.24
EPHKCPEVGKRFLRSSDLYRHQRL [C8V]	3.25
EPHKCPEGGKRFLRSSDLYRHQRL [C8G]	3.3
EPHKCPETGKRFLRSSDLYRHQRL [C8T]	3.36
EPHKCPEDGKRFLRSSDLYRHQRL [C8D]	4.03
EPHKCPEMGKRFLRSSDLYRHQRL [C8M]	3.05
EPHKCPEQGKRFLRSSDLYRHQRL [C8Q]	3.43
EPHKCPECGKRFLRSSDLYNHQRL [R20N]	4.21
EPHKCPECGKRFLRSSDLYGHQRL [R20G]	3.21
EPHKCPECGKRFLRSSDLYIHQRL [R20I]	3.56
EPHKCPECGKRFLRSSDLYLHQRL [R20L]	3.55
EPHKCPECGKRFLRSSDLYCHQRL [R20C]	3.69
EPHKCPECGKRFLRSSDLYDHQRL [R20D]	4.5
EPHKCPACGKRFLRSSDLYRHQRL [E7A]	3.29
EPHKCPTCGKRFLRSSDLYRHQRL [E7T]	3.82
EPHKCPPCGKRFLRSSDLYRHQRL [E7P]	2.21
EPHKCPDCGKRFLRSSDLYRHQRL [E7D]	4.12
EPHKCPFCGKRFLRSSDLYRHQRL [E7F]	3.25
EPHKCPYCGKRFLRSSDLYRHQRL [E7Y]	3.66
EPHKCPVCGKRFLRSSDLYRHQRL [E7V]	3.44
EPHKCPSCGKRFLRSSDLYRHQRL [E7S]	4.11
EPHKCPECGKWFLRSSDLYRHQRL [R11W]	4.26

Variant	protein stability index
EPHKCPECGKPFLRSSDLYRHQRL [R11P]	3.68
EPHKCPECGKGFLRSSDLYRHQRL [R11G]	4
EPHKCPECGKFFLRSSDLYRHQRL [R11F]	4.41
EPHKCPECGKQFLRSSDLYRHQRL [R11Q]	4.44
EPHKCPECGKSFLRSSDLYRHQRL [R11S]	5.13
EPHKCPECGKCFLRSSDLYRHQRL [R11C]	4.31
EPHKCPECGKRILRSSDLYRHQRL [F12I]	2.1
EPHKCPECGKRALRSSDLYRHQRL [F12A]	1.86
EPHKCPECGKRGLRSSDLYRHQRL [F12G]	2.12
EPHKCPECGKRVLRSSDLYRHQRL [F12V]	1.95
EPHKCPECGKRSLRSSDLYRHQRL [F12S]	1.86
EPHKCPECGKRKLRSSDLYRHQRL [F12K]	2.88
EPHKCPECGKRWLRSSDLYRHQRL [F12W]	1.93
EPHKCPECGKRELRSSDLYRHQRL [F12E]	2.34
TPHKCPECGKRFLRSSDLYRHQRL [E1T]	2.6
SPHKCPECGKRFLRSSDLYRHQRL [E1S]	2.73
GPHKCPECGKRFLRSSDLYRHQRL [E1G]	3.13
YPHKCPECGKRFLRSSDLYRHQRL [E1Y]	3.3
KPHKCPECGKRFLRSSDLYRHQRL [E1K]	2.79
CPHKCPECGKRFLRSSDLYRHQRL [E1C]	2.14
